# Measured values: US20210162014A1 (CASE WESTERN RESERVE UNIVERSITY, published 2021)
# Where “and” joins values, the source holds several entries; their conditions need not be identical. Equal entries are not always repeated. Bridges are numbered along the chain shown (N, C = ends). Where no end group is shown, it is not given here.
# B1: 4SS 81-04 (57mer single-chain insulin analogue containing a fourth disulfide bridge between residues B4 and A10) (ligand)
# chain: FVNCHLCGSHLVEALYLVCGERGFFYTDPTEEGPRRGIVEQCCHSCCSLEQLENYCN
# modifications: disulfide 19-56, 4-46, 42-47, 7-43
# notes: Single-chain insulin analogue, 57 residues, C domain EEGPRR; also called analogue 4SS 81-04
# Experiments:
# [1] = molecular target: IGF Type I receptor (IGF-1R) (UniProt P08069); experiment: receptor affinity (method not described), relative to wild-type insulin
# [2] = molecular target: B isoform of the insulin receptor (UniProt P06213); experiment: receptor affinity (method not described), relative to wild-type human insulin
# [3] = molecular target: T1, A isoform of the insulin receptor (UniProt P06213-2 28-1370, limits assumed); experiment: as above
# T1 construct: Isoform A is the short isoform lacking exon 11; also called IR-A
# [4] = substrate: B isoform of the insulin receptor (UniProt P06213); experiment: receptor-binding affinity assay (method not described), relative to wild-type human insulin
# [5] = molecular target: T1, A isoform of the insulin receptor; experiment: receptor-binding affinity assay (method not described; data not shown), relative to wild-type human insulin
Molecule,fold reduction in affinity relative to wild-type insulin [1] [fold],affinity relative to wild-type human insulin (percent) [2] [%],affinity relative to wild-type human insulin (percent) [3] [%],fold reduction in affinity relative to wild-type human insulin [4],affinity relative to human insulin (percent) [5] [percent]
59-mer SCI with C domain EEGSRRSR ('this SCI' of paragraph 30) (ligand),10,10 to 150,10 to 150,–,–
B1,–,–,–,5 fold and 10 fold,120
